The results in this text go back to patent US20250346683A1 (AstraZeneca / MedImmune, published 2025).

The test concerns the target T1, human endothelial lipase (EL) (human, UniProt Q9Y5X9 21-500).
T1 construct: also called human EL; LIPG gene product
T1 sequence (looked up): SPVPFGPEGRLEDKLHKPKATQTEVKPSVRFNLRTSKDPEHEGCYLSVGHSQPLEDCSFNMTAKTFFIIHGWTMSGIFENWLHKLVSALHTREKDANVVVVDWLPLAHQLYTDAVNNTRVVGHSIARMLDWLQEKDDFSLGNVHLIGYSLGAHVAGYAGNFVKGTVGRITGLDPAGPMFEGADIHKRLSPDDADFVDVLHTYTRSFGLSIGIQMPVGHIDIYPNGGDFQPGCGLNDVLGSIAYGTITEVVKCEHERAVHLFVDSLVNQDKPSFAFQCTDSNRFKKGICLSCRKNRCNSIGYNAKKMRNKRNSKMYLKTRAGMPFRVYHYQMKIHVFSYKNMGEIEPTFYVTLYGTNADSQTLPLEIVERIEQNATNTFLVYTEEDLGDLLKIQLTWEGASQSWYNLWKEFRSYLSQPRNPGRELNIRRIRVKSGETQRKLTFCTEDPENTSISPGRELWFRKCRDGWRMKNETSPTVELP
The test is described as follows: sandwich ECL immunoassay (MSD): MEDI5884 coated as capture, EL from plasma or reference standard as analyte, biotinylated anti-human EL antibody (OriGene) as detection. The method, then: Sandwich immunoassay was developed for the detection human EL utilizing ECL readout. An MSD (MesoScale Discovery) plate was coated with 5 μg/ml of MEDI5884, at 50 μl/well, incubated at 4° C. on a flat surface and subsequently washed 3× with 300 μl/well of ELISA Wash Buffer. The assay plate(s) were blocked with 150 μl/well of I Block Buffer (IBB) for ≥60 min on an orbital plate shaker at room temperature (RT). Reference standards (RS), quality control (QC) and negative control (NC), prepared in IBB, and test samples were added to the plates at 35 μl/well. Samples that had been previously tested determined the minimally required dilution ratio (MRD) as two (2) for plasma samples. The assay plate(s) were incubated at RT on a plate shaker with gentle shaking for 60 minutes±10 minutes. Unbound analyte was removed by washing the plate(s) with ELISA wash buffer. To detect the captured analyte, 1 μg/ml of biotinylated anti-human EL monoclonal antibody (OriGene) was added at 35 μl/well and incubated for an additional 60 minutes±10 minutes at RT on a plate shaker. Unbound detection antibody was removed by washing the plate(s). […] Plates were washed again and Read Buffer was added at 150 μl/well. Signal was read on a MSD sector imager instrument within 20 minutes of addition of the Read Buffer. […]

B1: MEDI5884 (antibody, human IgG4 S228P, kappa, V domains shown)
VH: QVQLVQSGSELKKPGASVKVSCKASGYTFTNYALNWVRQAPGQGLEWMGWINTYSGVGTYAGEFKGRFVFSLDTSVSTAYLQISSLKAEDTAVYYCARRGFYGRRFFDVWGKGTTVTVSS
VL: DIQLTQSPSSLSASVGDRVTITCKASQSVDYDVDSYMHWYQQKPGKAPKLLIYAASNLASGVPSRFSGSGSGTDFTFTISSLQPEDIATYYCQQTIEDPPTFGGGTKVEIKR
notes: It was coated on the MSD plate as the capture reagent
B1: the binding result is “binds”.
